# Legend:
# [1] = biological target: GABAB Receptor from rat whole-brain synaptosome extracts (rat); assay: affinity pull-down with sAPPα-Fc bait on rat synaptosome extracts, LCLC-MS/MS, three repeats
# [2] = biological target: GABABR1a on mouse hippocampal neurons (cultures and slices) (mouse) (UniProt Q9WV18); assay: cell-based or functional assay
# GABABR1a on mouse hippocampal neurons (cultures and slices) (mouse), sequence (Q9WV18 20-960): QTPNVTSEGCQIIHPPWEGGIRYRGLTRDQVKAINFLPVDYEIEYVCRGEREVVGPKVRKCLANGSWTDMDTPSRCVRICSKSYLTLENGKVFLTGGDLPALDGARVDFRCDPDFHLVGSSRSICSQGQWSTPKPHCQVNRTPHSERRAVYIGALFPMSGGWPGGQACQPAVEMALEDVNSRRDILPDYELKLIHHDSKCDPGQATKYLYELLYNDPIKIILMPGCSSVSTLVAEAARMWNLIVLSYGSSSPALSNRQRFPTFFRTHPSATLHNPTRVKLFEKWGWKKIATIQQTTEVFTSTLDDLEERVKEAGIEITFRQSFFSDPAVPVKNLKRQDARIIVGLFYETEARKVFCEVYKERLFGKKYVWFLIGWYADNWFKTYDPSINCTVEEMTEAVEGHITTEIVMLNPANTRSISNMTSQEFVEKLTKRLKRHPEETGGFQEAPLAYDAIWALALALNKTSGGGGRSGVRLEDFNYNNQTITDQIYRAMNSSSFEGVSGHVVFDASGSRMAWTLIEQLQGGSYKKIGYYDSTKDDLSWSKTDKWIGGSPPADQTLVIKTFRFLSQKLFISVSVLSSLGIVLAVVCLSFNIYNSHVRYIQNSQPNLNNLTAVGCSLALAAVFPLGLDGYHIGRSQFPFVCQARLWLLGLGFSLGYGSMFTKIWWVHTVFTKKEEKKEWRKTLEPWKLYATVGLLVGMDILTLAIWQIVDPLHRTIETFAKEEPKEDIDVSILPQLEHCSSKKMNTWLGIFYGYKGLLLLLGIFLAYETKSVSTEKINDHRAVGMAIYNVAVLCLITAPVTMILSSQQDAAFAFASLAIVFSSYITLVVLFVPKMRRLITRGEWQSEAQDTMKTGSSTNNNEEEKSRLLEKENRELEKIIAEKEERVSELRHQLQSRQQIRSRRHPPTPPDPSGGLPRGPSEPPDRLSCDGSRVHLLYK
# GABAB Receptor from rat whole-brain synaptosome extracts (rat), sequence (Q9Z0U4 20-960, chain 1 of 2): as the sequence (Q9WV18 20-960) above, with V5A, D108E, I124V, I702V, A850T, I902L counted along it
# GABAB Receptor from rat whole-brain synaptosome extracts (rat), sequence (O88871 41-940, chain 2 of 2, further chain): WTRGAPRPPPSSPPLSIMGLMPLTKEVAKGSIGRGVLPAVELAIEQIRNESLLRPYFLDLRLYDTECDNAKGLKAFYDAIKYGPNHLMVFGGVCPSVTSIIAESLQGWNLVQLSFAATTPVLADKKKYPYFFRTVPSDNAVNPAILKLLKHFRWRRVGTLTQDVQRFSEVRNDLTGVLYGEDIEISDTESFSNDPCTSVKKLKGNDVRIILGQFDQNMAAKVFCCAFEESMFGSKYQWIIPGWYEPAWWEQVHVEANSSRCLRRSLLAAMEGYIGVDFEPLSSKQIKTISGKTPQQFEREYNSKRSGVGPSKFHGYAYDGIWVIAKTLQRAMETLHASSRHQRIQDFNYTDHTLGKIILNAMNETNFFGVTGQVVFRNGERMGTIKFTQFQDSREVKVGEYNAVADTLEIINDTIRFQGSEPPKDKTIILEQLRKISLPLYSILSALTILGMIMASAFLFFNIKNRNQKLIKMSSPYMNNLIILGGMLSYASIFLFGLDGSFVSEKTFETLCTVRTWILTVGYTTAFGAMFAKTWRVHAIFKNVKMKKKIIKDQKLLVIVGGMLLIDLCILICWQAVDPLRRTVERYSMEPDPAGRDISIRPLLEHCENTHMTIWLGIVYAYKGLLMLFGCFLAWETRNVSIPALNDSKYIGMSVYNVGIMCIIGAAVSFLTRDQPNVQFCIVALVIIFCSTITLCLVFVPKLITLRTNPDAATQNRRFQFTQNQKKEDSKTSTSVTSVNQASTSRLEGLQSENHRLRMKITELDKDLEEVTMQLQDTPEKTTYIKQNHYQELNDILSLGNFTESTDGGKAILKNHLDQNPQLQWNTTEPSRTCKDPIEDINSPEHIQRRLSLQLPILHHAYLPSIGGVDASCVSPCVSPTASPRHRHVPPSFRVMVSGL
summed peptide count [1],summed spectra count [1],"reduction in mIPSC frequency, 250 nM [2]",Substance
35,22,–,sAPPα-Fc (soluble amyloid precursor protein α fused to human Fc) (from UniProt P12023 18-612) (Fc fusion)
–,–,17%,sAPLP1 (without Fc) (from UniProt Q03157 38-583) (ligand)

# — US20190225662A1
